From patent publication US10441607B1, “Multifunctional linker technology containing an N4 group” (priority 2016, dated 2019) come the findings set out here.

One series relates to AR42J tumor. Description: PET/CT imaging of AR42J tumor-bearing mice. The series is classed as in vivo. An excerpt: PET/CT images (FIG. 6) were taken of AR42J tumor-bearing mice administered ^68Ga-DOTA-TOC (left) and ^68Ga-MMC(5-FU)-TOC (right).
Series [1] has as its system SSTR2-expressing IMR-32 cells. Description: Cellular uptake / receptor-mediated binding and octreotide blocking in IMR-32 cells. The series is classed as cell-based. The method, then: The cellular uptake of compound 7 was compared to another dual-labeled TOC agent, ^64Cu-DA(NIR)-TOC, which was synthesized by sequential N-terminal functionalization of resin-bound TOC with an azide-containing amino acid and DOTA-NHS, in IMR-32 neuroblastoma cells. Agents (30 nM, 1-2 μCi) were added to vials containing 4 million cells and incubated at 4° C. for 1 hr. […] After washing twice with PBS, the cells were collected and bound radioactivity was measured by a γ counter.

Series [2] can be described thus: Biodistribution in AR42J xenografts. The series is classed as in vivo, mice. Particulars: mouse, all tissues other than tumor and kidneys, read-out: uptake in all locations other than tumor and kidneys.
Another series concerns AR42J xenografts. Description: Biodistribution in AR42J xenografts. The series is classed as in vivo, mice.

Regarding `C[C@@H](O)[C@@H]1NC(=O)[C@H](CCCCN)NC(=O)[C@@H](Cc2c[nH]c3ccccc23)NC(=O)[C@H](Cc2ccc(O)cc2)NC(=O)[C@@H](NC(=O)[C@@H](Cc2ccccc2)NC(=O)CN2CCN(CC(=O)O)CCN(C(=O)Cn3cc(F)c(=O)[nH]c3=O)CCN(CC(=O)O)CC2)CSSC[C@@H](C(=O)N[C@H](CO)[C@@H](C)O)NC1=O` [^68Ga-MMC(5-FU)-TOC, metal not drawn], the “localization in PET/CT images” value in the series with AR42J tumor is “primarily in the tumor, the kidneys, and the bladder”. Moreover, the “binding to IMR-32 cells” value in series [1] was “good binding”. In addition, the “reduction in binding on blocking with octreotide” value in series [1] (10-fold excess of octreotide) is reported as 81.2%; in series [1] (200-fold excess of octreotide) it was 94.9%. Moreover, the tissue uptake in series [2] was under 5 %ID/g. Moreover, the “location of the majority of the injected dose” value in the series with AR42J xenografts is given as “either the tumor or kidneys”.
